In test [1] the target is BSA (UniProt P02769). Nature of the test: ELISA, BSA wells, control Ab 5 µg/ml (control antibody not identified). (ELISA stands for enzyme-linked immunosorbent assay.)
Test [2] deals with BSA (UniProt P02769). Description: ELISA, BSA wells, control Ab 1 µg/ml (control antibody not identified).
Test [3] has as its target recombinant rat IL-17A (SEQ ID NO: 85) (rat) (UniProt Q61453). Nature of the test: cell-based or functional assay.
Test [4] concerns the target recombinant mouse IL-17A/F (R&D Systems Cat#5390-IL) (mouse) (UniProt Q62386). Nature of the test: cell-based or functional assay.
The target in test [5] is recombinant mouse IL-17F (SEQ ID NO: 84) (mouse) (UniProt Q7TNI7). Description: cell-based or functional assay.
Sequence of recombinant mouse IL-17F (SEQ ID NO: 84) (mouse) (Q7TNI7 other isoform, or with tags, fused parts or gaps limits assumed): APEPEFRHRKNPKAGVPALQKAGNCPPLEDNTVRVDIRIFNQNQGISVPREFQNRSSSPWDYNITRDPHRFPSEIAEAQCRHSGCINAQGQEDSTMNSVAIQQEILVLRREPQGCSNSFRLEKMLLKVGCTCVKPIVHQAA
Test [6] concerns the target recombinant mouse IL-17A (SEQ ID NO: 83) (mouse) (UniProt Q62386). Description: cell-based or functional assay.
Test [7] has as its target recombinant human IL-17A (SEQ ID NO: 76) (human) (UniProt Q16552). Description: cell-based or functional assay.
The target of test [8] is recombinant human IL-17A/F heterodimer (human) (UniProt Q16552). Nature of the test: cell-based or functional assay.
Sequence of recombinant human IL-17A/F heterodimer (human) (Q16552 24-155 limits assumed, chain 1 of 2): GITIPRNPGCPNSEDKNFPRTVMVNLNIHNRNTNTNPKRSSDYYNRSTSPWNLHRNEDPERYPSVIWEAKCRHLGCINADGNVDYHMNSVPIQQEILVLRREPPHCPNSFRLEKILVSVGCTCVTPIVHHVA
Sequence of recombinant human IL-17A/F heterodimer (human) (Q96PD4 31-163 limits assumed, chain 2 of 2, further chain): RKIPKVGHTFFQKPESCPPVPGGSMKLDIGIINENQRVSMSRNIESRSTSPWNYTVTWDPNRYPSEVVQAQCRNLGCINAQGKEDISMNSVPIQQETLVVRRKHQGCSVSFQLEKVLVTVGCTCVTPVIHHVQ
Test [9] concerns the target recombinant human IL-17F (SEQ ID NO: 77) (human) (UniProt Q96PD4). Description: cell-based or functional assay.

A value given as a limit tells only on which side of the number the result lay.

We go through two substances from patent publication US20180194839A1.

Sequence of recombinant human IL-17A (SEQ ID NO: 76) (human) (Q16552 other isoform, or with tags, fused parts or gaps limits assumed): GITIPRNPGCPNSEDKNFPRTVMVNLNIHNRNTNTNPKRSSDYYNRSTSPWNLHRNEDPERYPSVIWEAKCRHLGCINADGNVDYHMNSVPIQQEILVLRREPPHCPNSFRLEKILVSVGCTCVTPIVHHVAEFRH
Sequence of recombinant human IL-17F (SEQ ID NO: 77) (human) (Q96PD4 other isoform, or with tags, fused parts or gaps limits assumed): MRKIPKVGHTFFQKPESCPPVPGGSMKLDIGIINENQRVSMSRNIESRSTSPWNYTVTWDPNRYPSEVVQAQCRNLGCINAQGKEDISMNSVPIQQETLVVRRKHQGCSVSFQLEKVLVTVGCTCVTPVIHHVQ
Sequence of BSA (P02769 25-607 limits assumed): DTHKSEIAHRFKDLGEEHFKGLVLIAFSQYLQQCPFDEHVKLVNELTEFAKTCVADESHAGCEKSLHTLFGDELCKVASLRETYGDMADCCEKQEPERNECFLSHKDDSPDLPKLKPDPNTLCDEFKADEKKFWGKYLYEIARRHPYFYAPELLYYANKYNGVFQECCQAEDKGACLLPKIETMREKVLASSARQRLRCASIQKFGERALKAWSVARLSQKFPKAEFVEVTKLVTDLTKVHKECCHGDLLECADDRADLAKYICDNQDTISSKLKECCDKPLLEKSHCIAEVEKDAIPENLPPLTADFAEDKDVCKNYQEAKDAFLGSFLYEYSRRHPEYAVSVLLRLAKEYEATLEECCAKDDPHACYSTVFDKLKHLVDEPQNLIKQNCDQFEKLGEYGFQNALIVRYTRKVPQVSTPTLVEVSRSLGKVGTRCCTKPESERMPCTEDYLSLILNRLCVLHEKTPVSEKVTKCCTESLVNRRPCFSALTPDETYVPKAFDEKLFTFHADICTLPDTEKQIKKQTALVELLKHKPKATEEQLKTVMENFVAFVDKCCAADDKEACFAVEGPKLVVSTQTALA
Sequence of recombinant rat IL-17A (SEQ ID NO: 85) (rat) (Q61453 other isoform, or with tags, fused parts or gaps limits assumed): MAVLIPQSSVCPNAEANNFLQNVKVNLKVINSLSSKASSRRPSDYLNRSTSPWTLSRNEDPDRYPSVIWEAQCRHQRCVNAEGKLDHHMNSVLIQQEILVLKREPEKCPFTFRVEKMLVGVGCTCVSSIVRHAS
Sequence of recombinant mouse IL-17A (SEQ ID NO: 83) (mouse) (Q62386 other isoform, or with tags, fused parts or gaps limits assumed): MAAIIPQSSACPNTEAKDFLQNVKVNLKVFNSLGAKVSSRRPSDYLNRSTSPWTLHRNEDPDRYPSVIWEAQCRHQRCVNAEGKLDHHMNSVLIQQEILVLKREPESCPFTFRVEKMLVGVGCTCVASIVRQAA
Sequence of recombinant mouse IL-17A/F (R&D Systems Cat#5390-IL) (mouse) (Q62386 26-158 limits assumed, chain 1 of 2): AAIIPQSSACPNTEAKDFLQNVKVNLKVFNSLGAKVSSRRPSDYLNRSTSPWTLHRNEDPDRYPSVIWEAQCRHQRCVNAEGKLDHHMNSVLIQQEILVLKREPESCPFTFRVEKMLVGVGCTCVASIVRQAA
Sequence of recombinant mouse IL-17A/F (R&D Systems Cat#5390-IL) (mouse) (Q7TNI7 29-161 limits assumed, chain 2 of 2, further chain): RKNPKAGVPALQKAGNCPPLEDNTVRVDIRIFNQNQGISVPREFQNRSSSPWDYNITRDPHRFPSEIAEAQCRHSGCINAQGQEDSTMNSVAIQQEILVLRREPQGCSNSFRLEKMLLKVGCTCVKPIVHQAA

Take “Control antibody (not identified for this antigen)”: the O.D. was found to be 0.01 O.D in the test with BSA [1] and 0.149 O.D in the test with BSA [2].
Regarding Simulect® (antibody), the IC50, mouse KC secretion by CMT-93 cells; stimulus rIL-17A (1 nM) in test [3] was more than 3000 nM. Also, the IC50, mouse KC secretion by CMT-93 cells; stimulus mIL-17A/F (3 nM) in [4] is more than 3000 nM. The IC50, mouse KC secretion by CMT-93 cells; stimulus mIL-17F (30 nM) in test [5] is more than 3000 nM. In addition, in [6], the IC50, mouse KC secretion by CMT-93 cells; stimulus mIL-17A (1 nM) was more than 3000 nM. For the same substance, in test [7], the IC50, hu-GRO-alpha secretion by BJ cells; stimulus IL-17A (30 pM) + TNF-α (6 pM) was more than 3000 nM; the IC50, hu-GRO-alpha secretion by BJ cells; stimulus IL-17A (1 nM) is more than 100 nM; the IC50, huIL-6 secretion by BJ cells; stimulus rhuIL-17A (30 pM) + rhuTNF-α (6 pM) was more than 3000 nM; the IC50, huIL-6 secretion by BJ cells; stimulus rhuIL-17A (1 nM) was more than 100 nM. Moreover, in [8], the IC50, hu-GRO-alpha secretion by BJ cells; stimulus IL-17A/F (300 pM) + TNF-α (6 pM) is more than 3000 nM; the IC50, hu-GRO-alpha secretion by BJ cells; stimulus IL-17A/F (3 nM) was more than 100 nM; the IC50, huIL-6 secretion by BJ cells; stimulus rhuIL-17A/F (300 pM) + rhuTNF-α (6 pM) was more than 3000 nM; the IC50, huIL-6 secretion by BJ cells; stimulus rhuIL-17A/F (3 nM) is more than 100 nM. In test [9], the IC50, hu-GRO-alpha secretion by BJ cells; stimulus IL-17F (10 nM) + TNF-α (6 pM) is more than 3000 nM; the IC50, hu-GRO-alpha secretion by BJ cells; stimulus IL-17F (30 nM) was more than 1000 nM; the IC50, huIL-6 secretion by BJ cells; stimulus rhuIL-17F (10 nM) + rhuTNF-α (6 pM) was more than 3000 nM; the IC50, huIL-6 secretion by BJ cells; stimulus rhuIL-17F (30 nM) is more than 1000 nM.
